Results: publication doi:10.1101/112029

Target: untagged murine saposin A (SapA), wild type (murine)
Assay: crystal structure

- stoichiometry N: 2
Substance: untagged murine saposin A (SapA), wild type (natural protein)
